Laboratory results from the RNAGym collection of RNA variant scans (doi:10.1073/pnas.2313332121).
This sample holds only a part of the variants without activity.

B1: TPR 5TU (parent)
chain: GGAUCUUCUCGAUCUAACAAAAAAGACAAAUCUGCCACAAAGCUUGAGAGCAUCUUCGGAUGCAGAGGCGGCAGCCUUCGGUGGCGCGAUAGCGCCAACGUUCUCAACUAUGACACGCAAAACGCGUGCUCCGUUGAAUGGAGUUUAUCAUG

Variants of: B1
Assay: polymerase ribozyme fitness, log enrichment relative to wild type (log ratio); higher = more active; in vitro selection for triplet polymerase activity
How it was run: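 To select mutant libraries of each subunit of a heterodimeric triplet polymerase ribozyme, built by PCR and transcribed, each was annealed with a biotinylated primer, partner subunit and triplets, then incubated frozen at −7 °C. Extended constructs were gel-excised, captured on streptavidin beads and amplified by RT-PCR, in one round carried out in triplicate. Illumina sequencing of input and output libraries kept genotypes with ≥10 input reads and ≥1 read per output. Fitness is the base-2 logarithm of genotype enrichment relative to wild-type enrichment, from inverse-variance-weighted replicate averages.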

Variant | polymerase ribozyme fitness (log ratio)
A40C G84A A97U | -2.32
A40G C87U C103G | ≤ -4.2
A39U C85U | -2.27
A40G G124U | -2.64
A40C G140U | -3.39
A40U A97U C108U | ≤ -4.2
A39U G48C G67A C85G G86U G88A G92A C118G | ≤ -4.2
A40U A41U A49U G59A C87G U146G | ≤ -4.2
A40C C96G A119G | 0.217
A39U A64G G86A A89G U135A | ≤ -4.2
A40C C75G U82G C93G A138G G140C | ≤ -4.2
A39U C118U | -2.03
A39U U61C C96A | -3.93
A39U A40C G42U G48A A60U U82G C85A U104A U127C | ≤ -4.2
A39U G74U G81C A91U A98G C99U G124A | ≤ -4.2
A40C G92U G94A | 0.834
A39G U101C | -1.89
A39U A47G C95U A110G | -3.7
A39U C54U C57G U61A C95G C125G | ≤ -4.2
A39U G68A A73G C87G C132A G141C U144C | ≤ -4.2
A39U C54U C96A | -2.72

Variant | polymerase ribozyme fitness (log ratio)
A40C G48A G58A C87U | -2.55
A40C U53G A66G A119G | ≤ -4.2
A40G A64G G136A | ≤ -4.2
A40C U44G U53A C87G A107U A121U G124C U130A G143A | ≤ -4.2
A40U A52G C132G | -3.47
A40G A49U A60C C76A C96U U134G | ≤ -4.2
A39U G92C U127A | ≤ -4.2
A40C G50U U148A | ≤ -4.2
A40G C76U C95U C116G | -3.42
A39G G88C A91U G136U | ≤ -4.2
A39U C69A G74C C76U C87A | ≤ -4.2
A40C U146G | -0.247
A40G A47C C57U C85A A115U A119C A122G U144A | ≤ -4.2
A40C A60G U139C U144C | -3.63
A39U A41C A98G | -2.72
A39U U55G U82C C85U U146C | -2.49
A39G G48A C54A G88A C125U U134G U145C | ≤ -4.2
A40C A49U U56A C57A G88C U135A A137U | ≤ -4.2
A40G G67U C85A A98U U144C U145A | ≤ -4.2
A40C C96U U144G U151G | -3.73
A40C C96U A122G G124C | -0.809

Variant | polymerase ribozyme fitness (log ratio)
A40C G88U C96U A122U U127G U148A A150U | ≤ -4.2
A40C C93A | -1.96
A40C A64G G83U G133C A138C | ≤ -4.2
A40C G81A | 0.951
A39G U134G | -3.86
A40U A52G G58C C75U G141U | -2.07
A39U G100C U148A | -4.2
A40U C54U C85U C108U | ≤ -4.2
A39G G70A U77G G141A A142C | ≤ -4.2
A39U G58C G74U A91G C123G G133A U146C | ≤ -4.2
A40C G50A C95U U148C | ≤ -4.2
A40G A52C A66U C75G C79G A120C | ≤ -4.2
A40C A47C C93A A137G U146C | -4.13
A40G U53G A73G G81U G94A | ≤ -4.2
A40C C75U C116U A119C | -1.75
A40C U55A G59A A113U C123A | -0.982
A39U A89G G126U | -3.58
A40G A60G U61C G84A | -3.52
A39G G117C | -1.91
A40C C85A | -2.39
A40C C85U | -0.549

Variant | polymerase ribozyme fitness (log ratio)
A40C C76U C93G G152A | ≤ -4.2
A40U C54A C87U A89C | -2.61
A40G G70C C85A | ≤ -4.2
A39G G84A C116U | -1.91
A40G A52G A91U U102C A138U G143U | ≤ -4.2
A40U C57G C105A | -0.98
A40C C87A | -3.55
A40C C87U | -0.91
A40G A41U A49U G58C G74U C85A U139G G141C U148C | ≤ -4.2
A39U A107G G140C | ≤ -4.2
A40G A64C G70A C114U | ≤ -4.2
A39U G81A C99U U104C G117A | -3.48
A40G C125G | -2.5
A40G C69G G70U G83A A150U | ≤ -4.2
A40C G94U C95G | -3.87
A40G A41G G67C A120C | ≤ -4.2
A40C A122G | 0.759
A40C C85U G133C A142G | -3.92
A40C G46C C57A G74C C103A A107U C118G U134G G140C | ≤ -4.2
A40G U53G G84A A110G G136U | ≤ -4.2
